# Measurements taken from publication PMC7261172, “Peptides containing the PCNA interacting motif APIM bind to the β-clamp and inhibit bacterial growth and mutagenesis” (Nucleic Acids Research, 2020).
# Columns and labels:
# [1] = target: E. coli β-clamp, wild type, His-tagged (UniProt P0A988); test: SPR; settings: peak response at the end of the last (highest) peptide injection, about 1130 s; concentrations not given; parent: est. 140; read off a plot
# [2] = target: β-clamp (Escherichia coli) (UniProt P0A988); settings: cited from earlier work
response [1] [RU],Substance,Kd [2] [nM]
8,Octamer APIM peptide RWLVK (Ac-MDRWLVKW) MDRALVKW (mutated APIM; W to A at peptide position 4 of MDRWLVKW),–
–,Pol III alpha C-terminal peptide,2000
